Measurements taken from patent US20220289850 (published 2022).

What was measured:
[1] = target: T1, human integrin avb8 (human); experiment: SPR
T1 chain 1: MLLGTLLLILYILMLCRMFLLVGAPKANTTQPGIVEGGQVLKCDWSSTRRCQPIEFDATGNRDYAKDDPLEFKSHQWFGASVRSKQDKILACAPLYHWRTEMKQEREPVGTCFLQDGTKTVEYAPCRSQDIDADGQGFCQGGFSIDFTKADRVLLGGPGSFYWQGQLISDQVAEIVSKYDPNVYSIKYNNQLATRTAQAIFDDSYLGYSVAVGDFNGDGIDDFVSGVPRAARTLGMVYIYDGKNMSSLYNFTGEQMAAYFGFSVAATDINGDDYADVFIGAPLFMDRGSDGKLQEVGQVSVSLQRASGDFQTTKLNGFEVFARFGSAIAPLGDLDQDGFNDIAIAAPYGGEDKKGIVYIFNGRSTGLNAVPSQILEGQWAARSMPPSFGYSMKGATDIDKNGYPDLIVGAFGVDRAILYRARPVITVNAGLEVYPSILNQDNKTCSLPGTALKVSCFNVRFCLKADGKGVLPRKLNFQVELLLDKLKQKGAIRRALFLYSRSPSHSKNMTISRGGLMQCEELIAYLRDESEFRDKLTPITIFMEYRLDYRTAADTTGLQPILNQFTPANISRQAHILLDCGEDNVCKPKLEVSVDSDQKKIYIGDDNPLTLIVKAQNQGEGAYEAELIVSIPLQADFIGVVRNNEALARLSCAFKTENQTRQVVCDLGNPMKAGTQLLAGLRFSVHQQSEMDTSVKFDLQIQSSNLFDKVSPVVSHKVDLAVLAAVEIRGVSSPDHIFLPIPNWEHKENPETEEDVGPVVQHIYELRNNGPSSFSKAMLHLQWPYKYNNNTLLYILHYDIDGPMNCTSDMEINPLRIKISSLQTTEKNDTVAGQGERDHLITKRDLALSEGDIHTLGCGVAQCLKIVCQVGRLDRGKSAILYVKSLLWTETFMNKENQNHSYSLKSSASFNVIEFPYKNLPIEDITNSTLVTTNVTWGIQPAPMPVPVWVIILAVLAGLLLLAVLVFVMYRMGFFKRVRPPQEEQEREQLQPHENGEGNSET
T1 chain 2: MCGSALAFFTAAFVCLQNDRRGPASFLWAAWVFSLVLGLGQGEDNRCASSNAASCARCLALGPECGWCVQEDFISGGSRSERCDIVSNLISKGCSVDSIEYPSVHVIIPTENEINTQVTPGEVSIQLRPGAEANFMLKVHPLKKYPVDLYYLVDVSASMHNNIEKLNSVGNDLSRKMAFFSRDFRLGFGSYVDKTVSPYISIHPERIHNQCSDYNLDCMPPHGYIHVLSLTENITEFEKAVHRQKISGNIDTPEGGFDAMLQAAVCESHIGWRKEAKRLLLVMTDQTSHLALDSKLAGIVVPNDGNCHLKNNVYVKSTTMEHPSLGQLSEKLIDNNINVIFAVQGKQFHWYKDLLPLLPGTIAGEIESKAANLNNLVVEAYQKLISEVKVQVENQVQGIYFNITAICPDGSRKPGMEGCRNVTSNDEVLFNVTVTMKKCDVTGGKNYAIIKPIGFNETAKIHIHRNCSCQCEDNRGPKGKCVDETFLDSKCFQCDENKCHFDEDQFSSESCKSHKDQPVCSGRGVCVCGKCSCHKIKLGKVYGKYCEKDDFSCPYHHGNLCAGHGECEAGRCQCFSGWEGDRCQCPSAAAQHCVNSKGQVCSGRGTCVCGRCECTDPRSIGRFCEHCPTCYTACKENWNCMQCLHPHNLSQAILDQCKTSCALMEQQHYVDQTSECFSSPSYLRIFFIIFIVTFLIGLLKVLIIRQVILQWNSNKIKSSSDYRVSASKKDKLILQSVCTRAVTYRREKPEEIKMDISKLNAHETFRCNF

[2] = target: T2, human integrin avb6 (human, UniProt P06756); experiment: ELISA
T2 chain 1: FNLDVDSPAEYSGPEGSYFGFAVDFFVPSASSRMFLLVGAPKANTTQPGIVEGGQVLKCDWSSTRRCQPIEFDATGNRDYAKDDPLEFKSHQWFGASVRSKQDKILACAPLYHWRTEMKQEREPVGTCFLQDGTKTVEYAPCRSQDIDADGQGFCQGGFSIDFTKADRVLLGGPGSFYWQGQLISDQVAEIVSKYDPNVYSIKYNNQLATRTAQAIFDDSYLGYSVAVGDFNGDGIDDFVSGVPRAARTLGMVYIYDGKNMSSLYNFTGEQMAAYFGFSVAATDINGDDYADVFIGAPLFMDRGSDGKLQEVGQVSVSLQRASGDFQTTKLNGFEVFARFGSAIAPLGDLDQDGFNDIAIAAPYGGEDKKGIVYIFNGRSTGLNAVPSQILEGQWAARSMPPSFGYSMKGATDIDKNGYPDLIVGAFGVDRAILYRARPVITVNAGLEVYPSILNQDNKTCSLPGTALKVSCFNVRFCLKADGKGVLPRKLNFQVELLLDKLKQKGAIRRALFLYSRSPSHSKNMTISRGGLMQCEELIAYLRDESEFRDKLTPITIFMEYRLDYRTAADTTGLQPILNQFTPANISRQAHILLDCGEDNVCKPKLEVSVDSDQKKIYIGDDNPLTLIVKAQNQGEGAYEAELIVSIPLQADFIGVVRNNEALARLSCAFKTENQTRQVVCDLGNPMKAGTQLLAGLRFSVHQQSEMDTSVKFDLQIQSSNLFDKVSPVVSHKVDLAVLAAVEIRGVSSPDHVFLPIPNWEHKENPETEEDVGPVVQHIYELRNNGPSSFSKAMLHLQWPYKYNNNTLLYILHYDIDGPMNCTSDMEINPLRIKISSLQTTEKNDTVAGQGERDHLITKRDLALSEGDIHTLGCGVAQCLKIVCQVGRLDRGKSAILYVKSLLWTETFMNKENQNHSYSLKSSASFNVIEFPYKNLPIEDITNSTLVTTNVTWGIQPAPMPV
T2 chain 2: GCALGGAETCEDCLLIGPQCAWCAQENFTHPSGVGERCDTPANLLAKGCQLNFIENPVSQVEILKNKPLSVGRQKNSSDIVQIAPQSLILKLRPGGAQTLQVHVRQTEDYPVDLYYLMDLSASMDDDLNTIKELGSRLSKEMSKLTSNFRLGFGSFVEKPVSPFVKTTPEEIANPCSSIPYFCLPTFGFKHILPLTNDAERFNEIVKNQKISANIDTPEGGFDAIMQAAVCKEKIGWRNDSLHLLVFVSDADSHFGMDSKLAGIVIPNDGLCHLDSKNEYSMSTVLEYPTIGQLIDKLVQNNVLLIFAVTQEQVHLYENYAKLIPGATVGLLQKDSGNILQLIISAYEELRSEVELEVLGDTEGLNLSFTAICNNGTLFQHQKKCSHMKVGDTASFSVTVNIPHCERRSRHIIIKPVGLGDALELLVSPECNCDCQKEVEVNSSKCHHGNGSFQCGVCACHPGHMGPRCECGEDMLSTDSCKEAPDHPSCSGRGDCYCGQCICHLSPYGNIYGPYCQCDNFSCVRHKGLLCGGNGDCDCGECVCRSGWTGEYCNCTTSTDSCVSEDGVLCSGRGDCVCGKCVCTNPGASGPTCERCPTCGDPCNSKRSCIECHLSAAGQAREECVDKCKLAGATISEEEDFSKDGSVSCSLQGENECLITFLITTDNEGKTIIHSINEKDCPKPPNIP

[3] = target: T3, human integrin avb3 (human, UniProt P06756); experiment: SPR
T3 chain 1: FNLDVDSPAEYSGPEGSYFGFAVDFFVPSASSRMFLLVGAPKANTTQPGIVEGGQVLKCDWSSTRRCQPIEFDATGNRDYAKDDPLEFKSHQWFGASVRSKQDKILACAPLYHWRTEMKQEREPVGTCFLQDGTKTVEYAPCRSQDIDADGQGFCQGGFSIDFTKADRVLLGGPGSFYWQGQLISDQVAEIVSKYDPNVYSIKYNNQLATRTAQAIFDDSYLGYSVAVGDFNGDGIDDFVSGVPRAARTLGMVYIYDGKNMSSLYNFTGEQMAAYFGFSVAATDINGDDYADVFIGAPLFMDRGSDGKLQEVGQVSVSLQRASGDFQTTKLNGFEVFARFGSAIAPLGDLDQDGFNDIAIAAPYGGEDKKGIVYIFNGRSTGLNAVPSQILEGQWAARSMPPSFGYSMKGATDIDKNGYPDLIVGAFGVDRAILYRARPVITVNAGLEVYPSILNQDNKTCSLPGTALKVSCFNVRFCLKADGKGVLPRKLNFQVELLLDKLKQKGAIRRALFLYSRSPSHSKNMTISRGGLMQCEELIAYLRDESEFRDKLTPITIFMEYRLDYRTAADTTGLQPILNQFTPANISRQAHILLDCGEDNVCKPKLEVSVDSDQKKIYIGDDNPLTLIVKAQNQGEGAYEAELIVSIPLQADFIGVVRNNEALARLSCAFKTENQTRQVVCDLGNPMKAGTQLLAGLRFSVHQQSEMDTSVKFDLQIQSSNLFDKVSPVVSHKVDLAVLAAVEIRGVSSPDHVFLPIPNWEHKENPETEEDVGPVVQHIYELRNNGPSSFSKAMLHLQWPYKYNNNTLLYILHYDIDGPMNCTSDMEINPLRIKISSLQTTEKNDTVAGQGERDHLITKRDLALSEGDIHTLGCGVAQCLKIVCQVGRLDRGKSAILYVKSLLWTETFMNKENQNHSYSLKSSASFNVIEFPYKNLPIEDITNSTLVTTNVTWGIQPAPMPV
T3 chain 2: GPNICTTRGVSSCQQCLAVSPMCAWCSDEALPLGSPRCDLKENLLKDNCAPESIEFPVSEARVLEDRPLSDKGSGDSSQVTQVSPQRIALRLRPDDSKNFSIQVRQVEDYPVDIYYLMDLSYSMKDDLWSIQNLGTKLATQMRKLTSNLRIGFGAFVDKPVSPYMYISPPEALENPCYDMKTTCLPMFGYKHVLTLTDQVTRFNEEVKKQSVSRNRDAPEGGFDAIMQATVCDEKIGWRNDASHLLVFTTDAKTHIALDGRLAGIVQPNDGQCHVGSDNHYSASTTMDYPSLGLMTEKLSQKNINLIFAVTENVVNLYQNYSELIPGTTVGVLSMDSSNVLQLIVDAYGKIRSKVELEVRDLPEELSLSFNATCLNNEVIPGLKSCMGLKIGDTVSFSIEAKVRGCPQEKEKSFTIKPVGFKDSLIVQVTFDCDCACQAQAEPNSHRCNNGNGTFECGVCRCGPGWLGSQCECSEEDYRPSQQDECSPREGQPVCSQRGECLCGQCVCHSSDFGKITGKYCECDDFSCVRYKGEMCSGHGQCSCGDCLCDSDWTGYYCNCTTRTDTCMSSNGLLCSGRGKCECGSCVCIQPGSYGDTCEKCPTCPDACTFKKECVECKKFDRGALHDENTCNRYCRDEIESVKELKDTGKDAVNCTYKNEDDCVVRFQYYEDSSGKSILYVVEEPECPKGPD

[4] = target: T2, human integrin avb6; experiment: SPR

Kd [1]	binding result [3]	further results	Binder
0.37 nM			ADWA11 VH03/VK02 Fab (antibody, V domains shown) VH: EVQLVESGGGLVQPGGSLRLSCAASGFNIKDYYMNWVRQAPGKGLEWVGWIDPDNGNTIYDPKFQGRFTISADNAKNSAYLQMNSLRAEDTAVYYCARRLLMDYWGQGTLVTVSS VL: DIQMTQSPSSLSASVGDRVTITCRSTKSLLHFNGNTYLFWFQQKPGKAPKRLIYYMSNLASGVPSRFSGSGSGTDFTLTISSLQPEDFATYYCMQSLEYPFTFGQGTKVEIK
	no binding	binding result [2]: no binding	Mouse hybridoma ADWA-11 IgG (antibody, V domains shown) VH: EVQLQQSGAELVRPGAFVKLSCKASGFNIKDYYMNWVLQRPEQGLEWIGWIDPDNGNTIYDPKFQGKASITADTSSNTAYLQLSSLTSEDTAVYYCARRLLMDYWGQGTSVTVSS VL: DIVMTQAAPSVPVTPGESVSISCRSTKSLLHFNGNTYLFWFLQRPGQSPQRLIYYMSNLASGVPDRFSGRGSGTDFTLRISRVEAEDVGVYYCMQSLEYPFTFGTGTKLEIK
	no binding	binding result [4]: no binding	ADWA11 VH05-2/VK01 antibody (antibody, V domains shown) VH: EVQLVESGGGLVQPGGSLRLSCAASGFNIKDYYMNWVRQAPGKGLEWVGWIDPDNGNTIYDPKFQGRFTISADTSKNSAYLQMNSLRAEDTAVYYCARRLLMDYWGQGTLVTVSS VL: DIQMTQSPSSLSASVGDRVTITCRSTKSLLHFNGNTYLFWYQQKPGKAPKRLIYYMSNLASGVPSRFSGSGSGTDFTLTISSLQPEDFATYYCMQSLEYPFTFGQGTKVEIK
6.86 nM			ADWA11 VH01/VK01 Fab (antibody, V domains shown) VH: EVQLVESGGGLVQPGGSLRLSCAASGFNIKDYYMNWVRQAPGKGLEWVAWIDPDNGNTIYDPKFQGRFTISRDNAKNSLYLQMNSLRAEDTAVYYCARRLLMDYWGQGTLVTVSS VL: DIQMTQSPSSLSASVGDRVTITCRSTKSLLHFNGNTYLFWYQQKPGKAPKRLIYYMSNLASGVPSRFSGSGSGTDFTLTISSLQPEDFATYYCMQSLEYPFTFGQGTKVEIK
< 0.1 nM			ADWA11 VH03/VK01 Fab (antibody, V domains shown) VH: EVQLVESGGGLVQPGGSLRLSCAASGFNIKDYYMNWVRQAPGKGLEWVGWIDPDNGNTIYDPKFQGRFTISADNAKNSAYLQMNSLRAEDTAVYYCARRLLMDYWGQGTLVTVSS VL: DIQMTQSPSSLSASVGDRVTITCRSTKSLLHFNGNTYLFWYQQKPGKAPKRLIYYMSNLASGVPSRFSGSGSGTDFTLTISSLQPEDFATYYCMQSLEYPFTFGQGTKVEIK
1.89 nM			ADWA11 VH02/VK01 Fab (antibody, V domains shown) VH: EVQLVESGGGLVQPGGSLRLSCAASGFNIKDYYMNWVRQAPGKGLEWVAWIDPDNGNTIYDPKFQGRFTISADNAKNSLYLQMNSLRAEDTAVYYCARRLLMDYWGQGTLVTVSS VL: DIQMTQSPSSLSASVGDRVTITCRSTKSLLHFNGNTYLFWYQQKPGKAPKRLIYYMSNLASGVPSRFSGSGSGTDFTLTISSLQPEDFATYYCMQSLEYPFTFGQGTKVEIK
